Experiment [1] concerns the target mouse PERIOD2 (mPER2), in vitro translated, 35S-methionine-labeled (mouse, UniProt O54943 1-1257, limits assumed). Kind of experiment: in vitro binding, S-agarose-bound recombinant CK1ε with 35S-labeled in vitro translated mPER2. The procedure:
(§1) Half of the bound beads were then added to a kinase reaction as described above and in Example 3 below, but without c-casein or phosvitin, and incubated at 37° C. for 5 minutes. […] Reactions were separated on 12% SDS-PAGE gels, dried and exposed to phosphor screens. Following exposure to detect both the ^35S and ^32P signals, dried gels were covered with two layers of exposed X-OMAT film to block the ^35S signal. […] PER signal is indicated by filled triangles.
(§2) Per binding studies: For binding assays, mPER1 and mPER2 were synthesized from cDNAs cloned in plasmids by coupled in vitro transcription/translation reactions using ^35S-methionine in a total reaction volume of 50 μl (TNT T7 Coupled Reticulocyte Lysate System, Promega). Recombinant CK1ε was purified from *E. coli* by capture on S-agarose beads as described above. To reduce non-specific binding, 20 μl of in vitro-translated product was mixed with 50 μl of plain S-agarose beads in HND buffer (20 mM HEPES, pH 7.5, 100 mM KCl, 10% glycerol, 0.4% NP40, 1 mM DTT) with 5% BSA. This mixture was incubated at room temperature with shaking for 1 hour. Following incubation, the mixture was centrifuged at 2500 rpm for 5 minutes and the resulting supernatant was divided into two equal aliquots. […]

The target of experiment [2] is mouse PERIOD1 (mPER1), in vitro translated, 35S-methionine-labeled (mouse, UniProt O35973 1-1291, limits assumed). The experiment is described as follows: in vitro binding, S-agarose-bound recombinant CK1ε with 35S-labeled in vitro translated mPER1. The procedure:
as §1, §2

The target of experiment [3] is T1, GST (Glutathione-S-transferase) alone (UniProt P08515 1-218 = GST).
T1 construct: Control in the pull-down assay
T1 sequence (P08515 whole entry): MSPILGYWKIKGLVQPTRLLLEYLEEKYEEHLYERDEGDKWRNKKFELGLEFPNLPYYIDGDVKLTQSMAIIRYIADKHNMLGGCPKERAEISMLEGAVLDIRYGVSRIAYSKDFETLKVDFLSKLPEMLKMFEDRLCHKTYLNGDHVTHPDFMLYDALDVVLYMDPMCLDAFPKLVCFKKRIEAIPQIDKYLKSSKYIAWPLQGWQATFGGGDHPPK
The experiment is described as follows: GST pull-down, 35S-labeled in vitro translated DBT, SDS-PAGE and autoradiography. The source says:
(§3) The staining confirms that similar amounts of GST and GST-PER fusion proteins were used in the assay. Arrow indicates BSA present in all the washes. (Right) GST alone and the indicated GST-PER fusions were used to bind in vitro translated, ^35S-labeled DBT protein. Labeled DBT proteins that bound to the indicated GST-PER fusions were visualized by SDS-PAGE and autoradiography. […] For hs-gfp-dbt, GFP was fused to the amino terminus of DBT.

In experiment [4] the target is T2, GST-PER 530-640 fusion protein (Drosophila, UniProt P07663 530-640).
T2 construct: range 530-640; Constructed as described in Saez and Young 1996 (cited); Immobilized on glutathione agarose beads; also called aa 530-640 of PER; not shown: Glutathione-S-transferase (GST) fusion partner
T2 sequence (looked up): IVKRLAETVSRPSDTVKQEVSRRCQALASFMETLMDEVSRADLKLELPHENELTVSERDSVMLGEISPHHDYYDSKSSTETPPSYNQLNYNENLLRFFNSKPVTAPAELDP
The description is as above.
From the text: as §3

Chain of mouse PERIOD2 (mPER2), in vitro translated, 35S-methionine-labeled (O54943 whole entry): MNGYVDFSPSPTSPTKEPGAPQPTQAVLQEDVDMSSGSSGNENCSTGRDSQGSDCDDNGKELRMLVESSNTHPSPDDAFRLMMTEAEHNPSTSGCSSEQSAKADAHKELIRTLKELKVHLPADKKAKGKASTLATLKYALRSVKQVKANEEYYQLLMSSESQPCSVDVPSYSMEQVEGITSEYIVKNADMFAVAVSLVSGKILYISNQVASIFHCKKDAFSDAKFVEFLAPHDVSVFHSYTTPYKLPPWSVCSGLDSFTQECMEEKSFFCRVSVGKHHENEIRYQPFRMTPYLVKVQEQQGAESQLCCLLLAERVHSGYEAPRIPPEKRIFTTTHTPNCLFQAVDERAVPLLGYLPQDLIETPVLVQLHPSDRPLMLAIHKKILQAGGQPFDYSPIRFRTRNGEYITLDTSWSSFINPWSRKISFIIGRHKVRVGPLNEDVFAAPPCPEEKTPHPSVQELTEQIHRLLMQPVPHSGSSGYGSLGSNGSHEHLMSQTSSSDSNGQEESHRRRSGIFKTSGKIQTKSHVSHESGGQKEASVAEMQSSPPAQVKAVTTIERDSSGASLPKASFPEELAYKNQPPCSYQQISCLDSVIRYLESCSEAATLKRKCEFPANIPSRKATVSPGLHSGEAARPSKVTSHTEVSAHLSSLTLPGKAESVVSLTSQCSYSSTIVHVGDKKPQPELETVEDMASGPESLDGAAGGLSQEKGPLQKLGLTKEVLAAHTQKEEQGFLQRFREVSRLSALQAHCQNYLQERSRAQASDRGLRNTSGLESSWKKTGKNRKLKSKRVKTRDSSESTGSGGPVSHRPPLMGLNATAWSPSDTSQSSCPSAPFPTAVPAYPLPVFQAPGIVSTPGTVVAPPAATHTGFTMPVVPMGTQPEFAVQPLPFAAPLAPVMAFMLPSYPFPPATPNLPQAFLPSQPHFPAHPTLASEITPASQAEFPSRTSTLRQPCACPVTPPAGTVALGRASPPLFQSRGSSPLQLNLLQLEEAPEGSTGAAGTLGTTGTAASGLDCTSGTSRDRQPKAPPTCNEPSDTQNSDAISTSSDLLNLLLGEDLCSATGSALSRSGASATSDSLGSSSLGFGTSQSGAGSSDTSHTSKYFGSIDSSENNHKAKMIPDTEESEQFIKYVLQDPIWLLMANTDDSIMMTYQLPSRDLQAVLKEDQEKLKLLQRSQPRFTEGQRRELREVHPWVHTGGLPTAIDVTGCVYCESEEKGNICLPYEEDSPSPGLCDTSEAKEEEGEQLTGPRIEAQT
Chain of mouse PERIOD1 (mPER1), in vitro translated, 35S-methionine-labeled (O35973 whole entry): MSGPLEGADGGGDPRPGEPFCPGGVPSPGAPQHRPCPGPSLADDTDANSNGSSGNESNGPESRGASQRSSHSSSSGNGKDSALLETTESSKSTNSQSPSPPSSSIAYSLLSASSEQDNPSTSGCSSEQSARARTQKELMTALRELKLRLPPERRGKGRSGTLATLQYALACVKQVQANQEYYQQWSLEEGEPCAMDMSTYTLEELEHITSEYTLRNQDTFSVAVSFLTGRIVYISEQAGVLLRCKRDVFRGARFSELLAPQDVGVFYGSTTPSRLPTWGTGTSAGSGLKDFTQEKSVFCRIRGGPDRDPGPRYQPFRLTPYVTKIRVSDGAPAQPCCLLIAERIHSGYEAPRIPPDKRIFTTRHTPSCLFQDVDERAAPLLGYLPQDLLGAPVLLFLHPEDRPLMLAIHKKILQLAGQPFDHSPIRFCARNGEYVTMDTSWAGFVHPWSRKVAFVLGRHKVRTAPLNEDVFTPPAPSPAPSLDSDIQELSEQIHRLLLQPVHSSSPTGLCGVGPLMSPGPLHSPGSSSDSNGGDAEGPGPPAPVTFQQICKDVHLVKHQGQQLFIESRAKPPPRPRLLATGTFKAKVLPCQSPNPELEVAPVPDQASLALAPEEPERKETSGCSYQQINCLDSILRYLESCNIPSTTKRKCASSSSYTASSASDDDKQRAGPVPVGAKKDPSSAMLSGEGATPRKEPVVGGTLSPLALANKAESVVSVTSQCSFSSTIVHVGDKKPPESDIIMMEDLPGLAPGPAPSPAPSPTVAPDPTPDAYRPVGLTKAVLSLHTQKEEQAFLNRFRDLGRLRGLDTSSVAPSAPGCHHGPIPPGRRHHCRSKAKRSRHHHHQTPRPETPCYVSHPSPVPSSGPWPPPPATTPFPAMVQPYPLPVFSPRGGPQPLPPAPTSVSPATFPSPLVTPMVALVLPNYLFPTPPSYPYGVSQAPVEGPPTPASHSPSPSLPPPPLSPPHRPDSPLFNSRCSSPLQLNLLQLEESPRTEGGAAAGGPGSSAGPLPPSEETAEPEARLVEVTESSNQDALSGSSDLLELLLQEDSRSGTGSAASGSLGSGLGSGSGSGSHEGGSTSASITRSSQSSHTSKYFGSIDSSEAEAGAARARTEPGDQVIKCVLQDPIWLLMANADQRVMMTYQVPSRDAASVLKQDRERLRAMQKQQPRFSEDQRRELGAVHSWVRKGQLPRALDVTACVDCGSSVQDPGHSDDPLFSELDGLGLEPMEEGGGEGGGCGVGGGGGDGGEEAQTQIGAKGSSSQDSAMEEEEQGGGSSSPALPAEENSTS

B1: recombinant wild-type hamster CK1ε with N-terminal S•Tag and His-Tag fusions, captured on S-protein agarose (enzyme)
chain: MELRVGNKYRLGRKIGSGSFGDIYLGANIASGEEVAIKLECVKTKHPQLHIESKFYKMMQGGVGIPSIKWCGAEGDYNVMVMELLGPSLEDLFNFCSRKFSLKTVLLLADQMISRIEYIHSKNFIHRDVKPDNFLMGLGKKGNLVYIIDFGLAKKYRDARTHQHIPYRENKNLTGTARYASINTHLGIEQSRRDDLESLGYVLMYFNLGSLPWQGLKAATKRQKYERISEKKMSTPIEVLCKGYPSEFSTYLNFCRSLRFDDKPDYSYLRQLFRNLFHRQGFSYDYVFDWNMLKFGAARNPEDVDRERREHEREERMGQLRGSATRALPPGPPTGATANRLRSAAEPVASTPASRIQQAGNTSPRAISRADRERKVSMRLHRGAPANVSSSDLTGRQEVSRISASQTSVPFDHLGK
notes: Full-length cDNA expressed in E. coli BL21(DE3)pLysS; The preparation holds both autophosphorylated and unphosphorylated forms; also called wild-type CK1ε; WT; not shown: N-terminal S•Tag (15 amino acids) and His-Tag fusion from the pET-30 LIC vector
For B1, the binding result in experiment [1] and in experiment [2] was “binds” each time.

B2: recombinant tau mutant hamster CK1ε (Arg178Cys) with N-terminal S•Tag and His-Tag fusions, captured on S-protein agarose (enzyme)
chain: MELRVGNKYRLGRKIGSGSFGDIYLGANIASGEEVAIKLECVKTKHPQLHIESKFYKMMQGGVGIPSIKWCGAEGDYNVMVMELLGPSLEDLFNFCSRKFSLKTVLLLADQMISRIEYIHSKNFIHRDVKPDNFLMGLGKKGNLVYIIDFGLAKKYRDARTHQHIPYRENKNLTGTACYASINTHLGIEQSRRDDLESLGYVLMYFNLGSLPWQGLKAATKRQKYERISEKKMSTPIEVLCKGYPSEFSTYLNFCRSLRFDDKPDYSYLRQLFRNLFHRQGFSYDYVFDWNMLKFGAARNPEDVDRERREHEREERMGQLRGSATRALPPGPPTGATANRLRSAAEPVASTPASRIQQAGNTSPRAISRADRERKVSMRLHRGAPANVSSSDLTGRQEVSRISASQTSVPFDHLGK
notes: Full-length tau cDNA expressed in E. coli; Arg #178 of the wild-type protein is replaced by cysteine; also called tau CK1ε; tau mutant enzyme; not shown: N-terminal S•Tag (15 amino acids) and His-Tag fusion from the pET-30 LIC vector
On to B2, for which the binding result in experiment [1] and in experiment [2] was “binds” in each case.

B3: DOUBLETIME protein (DBT), Drosophila, in vitro translated from dbt cDNA P12, 35S-labeled (enzyme)
chain: MELRVGNKYRLGRKIGSGSFGDIYLGTTINTGEEVAIKLECIRTKHPQLHIESKFYKTMQGGIGIPRIIWCGSEGDYNVMVMELLGPSLEDLFNFCSRRFSLKTVLLLADQMISRIDYIHSRDFIHRDIKPDNFLMGLGKKGNLVYIIDFGLAKKFRDARSLKHIPYRENKNLTGTARYASINTHLGIEQSRRDDLESLGYVLMYFNLGALPWQGLKAANKRQKYERISEKKLSTSIVVLCKGFPSEFVNYLNFCRQMHFDQRPDYCHLRKLFRNLFHRLGFTYDYVFDWNLLKFGGPRNPQAIQQAQDGADGQAGHDAVAAAAAVAAAAAASSHQQQQHKVNAALGGGGGSRAQQQLQGGQTLAMLGGNGGGNGSQLIGGNGLNMDDSMAATNSSRPPYDTPERRPSIRMRQGGGGGGGGVGVGGMQSGGGGGGVGNAK
notes: In vitro translated, 35S-labeled; about 46 kDa by SDS-PAGE; the open reading frame predicts 440 aa; also called Drosophila CK1ε
In the case of B3, the binding result in experiment [3] and in experiment [4] was “no binding” each time.

Source of the values: US6476188 (ROCKEFELLER UNIVERSITY, dated 2002).
